± gives the standard deviation of the averaged measurements.
B1: library; numbered along this chain (parent)
chain: MNIQIGELAKRTACPVVTIRFYEQEGLLPPPGRSRGNFRLYGEEHVERLQFIRHCRSLDMPLSDVRTLLSYRKRPDQDCGEVNMLLDEHIRQVESRIGALLELKHHLVELREACSGARPAQSCGILQGLSDCVCDTRGTTAHPSD

Columns and labels:
[1] = variants of: B1; assay: sfGFP reporter fluorescence (15 h) (µM FITC); higher = higher leak; settings: library round: Round 0; ligand: none
Outline: (§1)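 With 1 µM lead chloride, 30 µM zinc acetate or no metal present, 1 μL Echo-assembled reactions were incubated 15 hr at 30 °C. They contained BL21 Star (DE3) PANOx-SP extract, 30 μg/mL GamS, the pPbrR-sfGFP reporter plasmid and PCR-made linear PbrR templates Echo-normalized to 5 nM. Endpoint sfGFP fluorescence was read on a Synergy Neo2 at 485/528 nm against FITC standards in 50 mM sodium borate pH 8.5. Results are expressed as µM FITC.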

[2] = variants of: B1; assay: sfGFP reporter fluorescence (15 h) (µM FITC); higher = stronger transcriptional activation; settings: library round: Round 0
Outline: as §1

Work on MNIQIGELAKRTACPVVTIRFYEQEGLLPPPGRSRGNFRLYGEEHVERLQFIRHCRSLDMPLSDVRTLLSYRKRPDQDCGEVNMLLDEHIRQVESRIGALLELKHHLVELREACSGARPAQSAGILQGLSDCVCDTRGTTAHPSD [C123A] yielded a sfGFP reporter fluorescence [1] of 0.0575 ± 0.001, a sfGFP reporter fluorescence ([2]; ligand: 1 µM Pb) of 0.0553 and a sfGFP reporter fluorescence ([2]; ligand: 30 µM Zn) of 0.0533 ± 0.00078.

Work on MNIQIGELAKRTACPVVTIRFYEQEGLLPPPGRSRGNFRLYGEEHVERLQFIRHCRSLDMPLSDVRTLLSYRKRPDQDYGEVNMLLDEHIRQVESRIGALLELKHHLVELREACSGARPAQSCGILQGLSDCVCDTRGTTAHPSD [C79Y] yielded a sfGFP reporter fluorescence [1] of 0.0597 ± 0.0031, a sfGFP reporter fluorescence ([2]; ligand: 1 µM Pb) of 0.0585 ± 0.00078 and a sfGFP reporter fluorescence ([2]; ligand: 30 µM Zn) of 0.0564 ± 0.001.

MNIQIGELAKRTACPVVTIRFYEQEGLLPPPGRSRGNFRLYGEEHVERLQFIRHCRSLDMPLSDVRTLLSYRKRPDQDCGEVNMLLDEHIRQVESRIGALLELKHHLVELREACSGARPAQSCGILQGLSDCVSDTRGTTAHPSD [C134S] gave a sfGFP reporter fluorescence [1] of 0.06597 ± 0.00052, a sfGFP reporter fluorescence ([2]; ligand: 1 µM Pb) of 0.0814 ± 0.0036 and a sfGFP reporter fluorescence ([2]; ligand: 30 µM Zn) of 1.22 ± 0.1.

In the case of MNIQIGELAKRTACPVVTIRFYEQEGLLPPPGRSRGNFRLYGEEHVERLQFIRHCRSLDMPLSDVRTLLSYRKRPDQDCGEVNMLLDEHIRQVESRIGALLELKHHLVELREAWSGARPAQSCGILQGLSDCVCDTRGTTAHPSD [C114W], the sfGFP reporter fluorescence [1] is reported as 0.0586 ± 0.001, the sfGFP reporter fluorescence ([2]; ligand: 1 µM Pb) is reported as 0.0592 ± 0.0013 and the sfGFP reporter fluorescence ([2]; ligand: 30 µM Zn) is reported as 0.05241 ± 0.00052.

Variant MNIQIGELAKRTACPVVTIRFYEQEGLLPPPGRSRGNFRLYGEEHVERLQFIRHCRSLDMPLSDVRTLLSYRKRPDQDCGEVNMLLDEHIRQVESRIGALLELKHHLVELREAKSGARPAQSCGILQGLSDCVCDTRGTTAHPSD [C114K] has a sfGFP reporter fluorescence [1] of 0.0583 ± 0.0031, a sfGFP reporter fluorescence ([2]; ligand: 1 µM Pb) of 0.0586 ± 0.001 and a sfGFP reporter fluorescence ([2]; ligand: 30 µM Zn) of 0.0563 ± 0.0029.

MNIQIGELAKRTACPVVTIRFYEQEGLLPPPGRSRGNFRLYGEEHVERLQFIRHCRSLDMSLSDVRTLLSYRKRPDQDCGEVNMLLDEHIRQVESRIGALLELKHHLVELREACSGARPAQSCGILQGLSDCVCDTRGTTAHPSD [P61S] gave a sfGFP reporter fluorescence [1] of 0.0755 ± 0.00052, a sfGFP reporter fluorescence ([2]; ligand: 1 µM Pb) of 0.146 ± 0.0036 and a sfGFP reporter fluorescence ([2]; ligand: 30 µM Zn) of 2.15 ± 0.052.

MNIQIGELAKRTACPVVTIRFYEQEGLLPPPGGSRGNFRLYGEEHVERLQFIRHCRSLDMPLSDVRTLLSYRKRPDQDCGEVNMLLDEHIRQVESRIGALLELKHHLVELREACSGARPAQSCGILQGLSDCVCDTRGTTAHPSD [R33G] showed a sfGFP reporter fluorescence [1] of 0.0577 ± 0.00078, a sfGFP reporter fluorescence ([2]; ligand: 1 µM Pb) of 0.0575 ± 0.0015 and a sfGFP reporter fluorescence ([2]; ligand: 30 µM Zn) of 0.0599 ± 0.0018.

MNIQIGELAKRTACPVVTIRFYEQEGLLPPPGRSRGNFRLYGQEHVERLQFIRHCRSLDMPLSDVRTLLSYRKRPDQDCGEVNMLLDEHIRQVESRIGALLELKHHLVELREACSGARPAQSCGILQGLSDCVCDTRGTTAHPSD [E43Q] showed a sfGFP reporter fluorescence [1] of 0.0614 ± 0.0018, a sfGFP reporter fluorescence ([2]; ligand: 1 µM Pb) of 0.076 ± 0.0029 and a sfGFP reporter fluorescence ([2]; ligand: 30 µM Zn) of 1.16 ± 0.18.

Variant MNIQIGELAKRTACPVVTIRFYEQEGLLPPPGRSRGNFRLYGEEHVERLQFIRHCRSLDMPLSDVRTLLSYRKRPDQDCGEVNMLLDEHIRQVESRIGALLELKHHLVDLREACSGARPAQSCGILQGLSDCVCDTRGTTAHPSD [E109D] has a sfGFP reporter fluorescence [1] of 0.0597 ± 0.0021, a sfGFP reporter fluorescence ([2]; ligand: 1 µM Pb) of 0.0727 ± 0.0023 and a sfGFP reporter fluorescence ([2]; ligand: 30 µM Zn) of 0.674 ± 0.02.

With MNIQIGELAKRTACPVVTIRFYEQEGLLPPPGRSRGNFRLYGEEHVERLQFIRHCRSLDMPLSKVRTLLSYRKRPDQDCGEVNMLLDEHIRQVESRIGALLELVHHCVELREACSGARPAQSCGILQMLSDCVCDTRGTTAHPSD [D64K K104V L107C G128M] the sfGFP reporter fluorescence [1] was 3.13 ± 0.25, the sfGFP reporter fluorescence ([2]; ligand: 1 µM Pb) was 3.98 ± 0.082 and the sfGFP reporter fluorescence ([2]; ligand: 30 µM Zn) was 3.57 ± 0.84.

MNIQIGELAKRTACPVVTIRFYEQEGLLPPPGRSRGNFRLYGEEHVERLQFIRHCRSLDMPLSDVRTLLSYRKRPDQDCGEVNMLLDEHIRQVESRIGALLELKHHLVEDREACSGARPAQSCGILQGLSDCVCDTRGTTAHPSD [L110D] gave a sfGFP reporter fluorescence [1] of 0.0575 ± 0.0015, a sfGFP reporter fluorescence ([2]; ligand: 1 µM Pb) of 0.0586 and a sfGFP reporter fluorescence ([2]; ligand: 30 µM Zn) of 0.0574 ± 0.00078.

In the case of MNIQIYELAKRTACPVVTIRFYEQEGLLPPPGRSRGNFRLYGEEHVERLQFIRHCRSLDMPLSDVRTLLSYRKRPDQDCGEVNMLLDEHIRQVESRIGALLELKHHLVELREACSGARPAQSCGILQGLSDCVCDTRGTTAHPSD [G6Y], the sfGFP reporter fluorescence [1] is reported as 0.0603 ± 0.0034, the sfGFP reporter fluorescence ([2]; ligand: 1 µM Pb) is reported as 0.0608 ± 0.001 and the sfGFP reporter fluorescence ([2]; ligand: 30 µM Zn) is reported as 0.066.

Variant MNIQINELAKRTACPVVTIRFYEQEGLLPPPGRSRGNFRLYGEEHVERLQFIRHCRSLDMPLSDVRTLLSYRKRPDQDCGEVNMLLDEHIRQVESRIGALLELKHHLVELREACSGARPAQSCGILQGLSDCVCDTRGTTAHPSD [G6N] has a sfGFP reporter fluorescence [1] of 0.0607 ± 0.00078, a sfGFP reporter fluorescence ([2]; ligand: 1 µM Pb) of 0.0599 ± 0.0013 and a sfGFP reporter fluorescence ([2]; ligand: 30 µM Zn) of 0.0773 ± 0.0015.

In the case of MNIQIGELAKRTACPVVTIRFYEQEGLAPPPGRSRGNFRLYGEEHVERLQFIRHCRSLDMPLSDVRTLLSYRKRPDQDCGEVNMLLDEHIRQVESRIGALLELKHHLVELREACSGARPAQSCGILQGLSDCVCDTRGTTAHPSD [L28A], the sfGFP reporter fluorescence [1] is reported as 0.06322 ± 0.00026, the sfGFP reporter fluorescence ([2]; ligand: 1 µM Pb) is reported as 0.0603 ± 0.00078 and the sfGFP reporter fluorescence ([2]; ligand: 30 µM Zn) is reported as 0.0695 ± 0.0013.
